Assay results: patent US20240058465A1 (SUTRO BIOPHARMA, published 2024)
Substitutions are numbered along the chain they refer to.

B1: SRP2188-C09 (antibody, IgG1, V domains shown)
VH: EVQLVESGGGLVQPGGSLRLSCAASGFNINSYDIHWVRQAPGKGLEWVGWINPHDGDTYYADSVTGRFTISADTSKNTAYLQMNSLRAEDTAVYYCARDYGVFDYWGQGTLVTVSS
VL: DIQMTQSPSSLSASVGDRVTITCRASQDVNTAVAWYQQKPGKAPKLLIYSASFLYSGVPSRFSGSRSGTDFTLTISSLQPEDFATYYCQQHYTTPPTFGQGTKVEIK
notes: IgG1 with trastuzumab LC; HIS- and FLAG-tagged; cell-free expressed
B2: SRP2188-F06 (antibody, IgG1, V domains shown)
VH: B1 VH with N30L, S31D, W50G, N52D, H54D, D57A, Y59D, T65K
VL: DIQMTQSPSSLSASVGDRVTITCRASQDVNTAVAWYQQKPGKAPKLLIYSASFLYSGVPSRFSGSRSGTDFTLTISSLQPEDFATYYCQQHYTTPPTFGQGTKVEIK
notes: as for B1
B3: SRP2188-G02 (antibody, IgG1, V domains shown)
VH: B1 VH with N30V, S31G, G42S, W50G, N52D, H54N, D57A, Y59D, T65K
VL: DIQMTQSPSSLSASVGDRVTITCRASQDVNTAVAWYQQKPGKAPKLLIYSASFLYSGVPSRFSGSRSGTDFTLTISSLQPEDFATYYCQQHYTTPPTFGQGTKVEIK
notes: as for B1
B4: SRP2188-E01 (antibody, IgG1, V domains shown)
VH: B1 VH with N30G, S31D, G49V, W50G, N52D, H54Q, D57A, Y59D, T65K
VL: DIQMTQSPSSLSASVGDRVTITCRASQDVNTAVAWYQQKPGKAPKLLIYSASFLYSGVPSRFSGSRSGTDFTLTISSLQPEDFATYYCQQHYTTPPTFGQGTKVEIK
notes: as for B1
B5: SRP2188-E04 (antibody, IgG1, V domains shown)
VH: EVQLVESGGGLVQPGGSLRLSCAASGFNISDYDIHWVRQAPGKGLEWVAGIDPQDGSTDYADSVKGRFTISADTSKNTAYLQMNSLRAEDAAVYYCARDFGVFDYWGQGTLVTVSS
VL: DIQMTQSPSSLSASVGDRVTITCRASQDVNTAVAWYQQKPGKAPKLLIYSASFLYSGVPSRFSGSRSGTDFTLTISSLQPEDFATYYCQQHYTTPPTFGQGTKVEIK
notes: as for B1
B6: SRP2188-F11 (antibody, IgG1, V domains shown)
VH: B5 VH with S30T, D31G, A49G, Q54E, S57A, A91T, F100Y
VL: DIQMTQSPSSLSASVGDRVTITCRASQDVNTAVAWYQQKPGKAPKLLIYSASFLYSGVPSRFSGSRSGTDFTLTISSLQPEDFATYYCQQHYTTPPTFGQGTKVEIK
notes: as for B1
B7: SRP2188-E03 (antibody, IgG1, V domains shown)
VH: B5 VH with S30R, Q54D, A91T, F100Y, F103Y
VL: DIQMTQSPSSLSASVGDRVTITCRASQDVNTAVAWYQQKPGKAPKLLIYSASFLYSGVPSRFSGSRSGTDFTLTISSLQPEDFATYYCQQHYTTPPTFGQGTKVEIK
notes: as for B1
B8: SRP2188-G03 (antibody, IgG1, V domains shown)
VH: B5 VH with S30V, A49V, Q54R, A91T
VL: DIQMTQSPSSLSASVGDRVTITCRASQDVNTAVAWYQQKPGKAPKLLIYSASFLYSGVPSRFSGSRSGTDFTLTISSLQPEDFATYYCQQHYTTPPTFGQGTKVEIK
notes: as for B1
B9: SRP2188-D06 (antibody, IgG1, V domains shown)
VH: B5 VH with S30R, A49G, Q54N, S57A, A91T, F100Y
VL: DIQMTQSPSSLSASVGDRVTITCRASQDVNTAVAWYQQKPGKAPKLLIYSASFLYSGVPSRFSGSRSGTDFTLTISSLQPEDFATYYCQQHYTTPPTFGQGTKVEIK
notes: as for B1
B10: SRP2188-D04 (antibody, IgG1, V domains shown)
VH: B5 VH with A49G, Q54A, A91T, F100Y, F103Y
VL: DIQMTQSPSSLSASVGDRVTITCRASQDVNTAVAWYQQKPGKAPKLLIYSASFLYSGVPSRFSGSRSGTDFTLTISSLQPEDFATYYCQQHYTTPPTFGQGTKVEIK
notes: IgG1 with trastuzumab LC; HIS- and FLAG-tagged; cell-free expressed in the screen; also called mAb 42
B11: SRP2188-D09 (antibody, IgG1, V domains shown)
VH: B5 VH with S30R, A49V, Q54G, A91T
VL: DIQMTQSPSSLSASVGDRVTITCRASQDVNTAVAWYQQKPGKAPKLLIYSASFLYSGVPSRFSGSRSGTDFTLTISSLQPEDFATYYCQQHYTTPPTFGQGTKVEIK
notes: as for B1
B12: SRP2188-D03 (antibody, IgG1, V domains shown)
VH: B5 VH with A49G, Q54H, A91T, F100Y, F103Y
VL: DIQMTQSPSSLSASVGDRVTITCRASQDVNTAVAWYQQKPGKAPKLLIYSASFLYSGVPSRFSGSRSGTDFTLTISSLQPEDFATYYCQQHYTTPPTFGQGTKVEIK
notes: as for B1
B13: SRP2188-F08 (antibody, IgG1, V domains shown)
VH: B5 VH with S30P, Y32F, D33E, G50R, D52E, Q54D, S57A, A91T, F100Y
VL: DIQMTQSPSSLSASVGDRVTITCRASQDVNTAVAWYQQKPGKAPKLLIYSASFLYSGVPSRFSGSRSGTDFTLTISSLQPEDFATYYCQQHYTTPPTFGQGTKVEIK
notes: as for B1
B14: Conjugate 21 (D04-F404-LP32) (antibody, human IgG1, kappa)
heavy: MEVQLVESGGGLVQPGGSLRLSCAASGFNISDYDIHWVRQAPGKGLEWVGGIDPADGSTDYADSVKGRFTISADTSKNTAYLQMNSLRAEDTAVYYCARDYGVYDYWGQGTLVTVSSASTKGPSVFPLAPSSKSTSGGTAALGCLVKDYFPEPVTVSWNSGALTSGVHTFPAVLQSSGLYSLSSVVTVPSSSLGTQTYICNVNHKPSNTKVDKKVEPKSCDKTHTCPPCPAPELLGGPSVFLFPPKPKDTLMISRTPEVTCVVVDVSHEDPEVKFNWYVDGVEVHNAKTKPREEQYNSTYRVVSVLTVLHQDWLNGKEYKCKVSNKALPAPIEKTISKAKGQPREPQVYTLPPSREEMTKNQVSLTCLVKGFYPSDIAVEWESNGQPENNYKTTPPVLDSDGSFLYSKLTVDKSRWQQGNVFSCSVMHEALHNHYTQKSLSLSPGK
light: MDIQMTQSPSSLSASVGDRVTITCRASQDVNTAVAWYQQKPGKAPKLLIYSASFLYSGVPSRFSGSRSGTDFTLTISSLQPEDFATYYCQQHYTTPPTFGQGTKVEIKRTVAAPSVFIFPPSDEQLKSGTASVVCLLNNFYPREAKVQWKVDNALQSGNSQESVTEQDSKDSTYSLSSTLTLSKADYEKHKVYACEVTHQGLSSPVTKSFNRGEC
modifications: pAMF at F404 (EU), linked to LP32
B15: Conjugate 17 (D04-F404-LP14) (antibody, human IgG1, kappa)
heavy: B14 heavy
light: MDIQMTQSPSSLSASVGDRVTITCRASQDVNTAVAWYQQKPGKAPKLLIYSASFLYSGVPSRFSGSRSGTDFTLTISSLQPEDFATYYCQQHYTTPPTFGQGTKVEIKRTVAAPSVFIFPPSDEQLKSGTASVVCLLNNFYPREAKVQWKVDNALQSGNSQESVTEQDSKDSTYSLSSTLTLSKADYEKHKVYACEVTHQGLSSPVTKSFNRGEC
modifications: pAMF at F404 (EU), linked to LP14
B16: Conjugate 20 (D04-F404-LP31) (antibody, human IgG1, kappa)
heavy: B14 heavy
light: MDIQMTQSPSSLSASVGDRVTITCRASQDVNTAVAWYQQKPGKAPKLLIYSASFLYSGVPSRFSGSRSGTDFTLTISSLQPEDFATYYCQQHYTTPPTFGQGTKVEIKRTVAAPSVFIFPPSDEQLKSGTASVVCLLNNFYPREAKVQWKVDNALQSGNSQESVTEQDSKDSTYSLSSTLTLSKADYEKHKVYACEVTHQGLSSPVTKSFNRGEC
modifications: pAMF at F404 (EU), linked to LP31
B17: Conjugate 19 (D04-F404-LP30) (antibody, human IgG1, kappa)
heavy: B14 heavy
light: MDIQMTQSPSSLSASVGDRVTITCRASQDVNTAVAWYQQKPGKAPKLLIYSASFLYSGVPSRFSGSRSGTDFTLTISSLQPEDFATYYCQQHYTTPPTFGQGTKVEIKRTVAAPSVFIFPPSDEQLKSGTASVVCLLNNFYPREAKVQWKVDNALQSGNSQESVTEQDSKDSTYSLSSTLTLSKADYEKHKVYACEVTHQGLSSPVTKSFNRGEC
modifications: pAMF at F404 (EU), linked to LP30
B18: Conjugate 22 (D04-Y180/F404-LP11) (antibody, human IgG1, kappa)
heavy: MEVQLVESGGGLVQPGGSLRLSCAASGFNISDYDIHWVRQAPGKGLEWVGGIDPADGSTDYADSVKGRFTISADTSKNTAYLQMNSLRAEDTAVYYCARDYGVYDYWGQGTLVTVSSASTKGPSVFPLAPSSKSTSGGTAALGCLVKDYFPEPVTVSWNSGALTSGVHTFPAVLQSSGLSLSSVVTVPSSSLGTQTYICNVNHKPSNTKVDKKVEPKSCDKTHTCPPCPAPELLGGPSVFLFPPKPKDTLMISRTPEVTCVVVDVSHEDPEVKFNWYVDGVEVHNAKTKPREEQYNSTYRVVSVLTVLHQDWLNGKEYKCKVSNKALPAPIEKTISKAKGQPREPQVYTLPPSREEMTKNQVSLTCLVKGFYPSDIAVEWESNGQPENNYKTTPPVLDSDGSFLYSKLTVDKSRWQQGNVFSCSVMHEALHNHYTQKSLSLSPGK
light: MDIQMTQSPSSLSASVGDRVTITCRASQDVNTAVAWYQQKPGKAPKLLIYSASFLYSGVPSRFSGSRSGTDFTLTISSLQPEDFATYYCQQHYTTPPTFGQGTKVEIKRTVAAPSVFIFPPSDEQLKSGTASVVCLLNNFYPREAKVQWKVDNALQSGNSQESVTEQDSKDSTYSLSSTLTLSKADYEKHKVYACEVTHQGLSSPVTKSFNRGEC
modifications: pAMF at Y180 and F404 (EU), each linked to LP11
B19: D04-Y180/F404-LP32 (printed under conjugate number 21, DAR 3.85) (antibody, human IgG1, kappa)
heavy: B18 heavy
light: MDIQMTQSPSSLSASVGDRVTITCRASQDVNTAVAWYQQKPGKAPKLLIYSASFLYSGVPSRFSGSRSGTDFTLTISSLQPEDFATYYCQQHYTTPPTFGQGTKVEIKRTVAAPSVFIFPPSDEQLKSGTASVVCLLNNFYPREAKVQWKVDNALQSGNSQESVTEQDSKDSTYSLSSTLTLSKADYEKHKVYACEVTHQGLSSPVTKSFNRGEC
modifications: pAMF at Y180 and F404 (EU), each linked to LP32
B20: Conjugate 1 (D04-Y180/F404-LP1) (antibody, human IgG1, kappa)
heavy: B18 heavy
light: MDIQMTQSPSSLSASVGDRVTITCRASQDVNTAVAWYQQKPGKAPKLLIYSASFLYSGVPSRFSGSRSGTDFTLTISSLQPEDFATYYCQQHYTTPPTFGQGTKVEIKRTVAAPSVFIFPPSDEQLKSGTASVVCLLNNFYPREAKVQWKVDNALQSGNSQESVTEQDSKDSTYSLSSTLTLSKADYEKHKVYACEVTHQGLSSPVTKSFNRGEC
modifications: pAMF at Y180 and F404 (EU), each linked to LP1

These binders were tested against T1, human ROR1-ECD (human, UniProt Q01973 30-406) (assay: SPR (Biacore), antibody captured by anti-Fc, human ROR1-ECD analyte).
T1 construct: Bought protein; also called hROR1; ROR1-extracellular domain
Protocol: Anti-Fc polyclonal antibodies were immobilized onto a CMS chip (GE Life Sciences) using amine coupling chemistry (from Amine Coupling Kit, GE Life Sciences). The immobilization steps were carried out at a flow rate of 25 μL/min in 1×HBS-EP+buffer (GE Life Sciences; 10× Stock diluted before use). The sensor surfaces were activated for 7 min with a mixture of NHS (0.05 M) and EDC (0.2 M). The Anti-Fc antibodies were injected over all 4 flow cells at a concentration of 25 ug/ml in 10 mM sodium acetate, pH 4.5, for 7 min. Ethanolamine (1 M, pH 8.5) was injected for 7 min to block any remaining activated groups.
Off-rate and kinetic binding experiments were performed at 25° C. using 1×HBS-EP+buffer. Test and control antibodies were injected over the anti-Fc surface at concentrations of 5-10 μg/mL for 12 seconds at a flow rate of 10 μL/min on flow cells 2, 3 and 4, followed by a buffer wash for 30 seconds at the same flow rate. […] After capturing ligand (antibody) on the anti-Fc surface, the analyte (hROR1, Fz or Kr domains, Acro Biosystems, Delaware) was bound for 180 seconds, followed by a 600 second dissociation phase at a flow rate of 50 μL/min. Between each ligand capture and analyte binding cycle, regeneration was carried out using 2 injections of 10 mM Glycine pH 2.0 for 30 seconds at 30 μL/min, followed by a 30 second buffer wash step.

Binder	Kd [nM]	koff [s⁻¹]	kon [M⁻¹ s⁻¹]
B1	0.504	0.00042	833000
B2	0.384	0.000357	931000
B3	0.49	0.000443	905000
B4	0.827	0.000387	468000
B5	0.604	0.000468	775000
B6	0.313	0.000249	794000
B7	0.464	0.000333	718000
B8	0.373	0.000316	846000
B9	0.628	0.000563	897000
B10	0.426	0.000423	994000
B11	0.366	0.00028	766000
B12	0.838	0.00055	656000
B13	0.428	0.000422	987000

What follows are binders tested against receptor tyrosine kinase orphan receptor 1 (ROR1) on Ntera-2 cells (human, UniProt Q01973 30-937) (assay: cell-based or functional assay).

Binder	cell killing EC50, NTERA-2 cells [nM]	cell killing Span, NTERA-2 cells [%]
B14	2.96	97
B15	0.03	77
B16	> 10	> 60
B17	0.043	83
B18	> 10	< 20
B19	> 10	< 20
B20	0.085	56

What follows are binders tested against T2, human ROR1 (hROR1) expressed on cells (human, UniProt Q01973 30-937) (assay: flow cytometry, HCT116-hROR1 cells).
T2 construct: Mino cells are the target positive cells of the killing assay; also called receptor tyrosine kinase like orphan receptor 1; HCT 116-hROR1

Binder	Bmax (MFI)	Kd [nM]
B1	9080	0.03
B2	10200	0.03
B3	8920	0.02
B4	9370	0.06
B5	9860	0.03
B6	9480	0.03
B7	10300	0.02
B8	8960	0.03
B9	9810	0.04
B10	9690	0.04
B11	8970	0.06
B12	9110	0.04
B13	9030	0.02

The binders below were run against T2, human ROR1 (hROR1) expressed on cells (assay: cell-based or functional assay).

Binder	Mino Nb-PBD, drug-conjugated 2° antibody Cell Killing IC50 [nM]	Mino Nb-PBD, drug-conjugated 2° antibody Cell Killing Span [%]
B1	0.00091	71
B2	0.00055	75
B3	0.00047	74
B4	0.0015	69
B5	0.00087	66
B6	0.00099	68
B7	0.0013	65
B8	0.00097	70
B9	0.0015	69
B10	0.0014	69
B11	0.0013	70
B12	0.00089	72
B13	0.00071	75
